The target of test [1] is T1, GFP-B9L (full-length), full-length B9L cDNA in pEGFP-C2 (plasmid pEGFP-C2B9L) (mouse, UniProt Q67FY2 1-1494).
T1 construct: expressed in mouse 3T3 cells; also called full-length B9L protein; not shown: green fluorescent protein (GFP) as encoded by vector pEGFP-C2 (Clontech)
T1 sequence: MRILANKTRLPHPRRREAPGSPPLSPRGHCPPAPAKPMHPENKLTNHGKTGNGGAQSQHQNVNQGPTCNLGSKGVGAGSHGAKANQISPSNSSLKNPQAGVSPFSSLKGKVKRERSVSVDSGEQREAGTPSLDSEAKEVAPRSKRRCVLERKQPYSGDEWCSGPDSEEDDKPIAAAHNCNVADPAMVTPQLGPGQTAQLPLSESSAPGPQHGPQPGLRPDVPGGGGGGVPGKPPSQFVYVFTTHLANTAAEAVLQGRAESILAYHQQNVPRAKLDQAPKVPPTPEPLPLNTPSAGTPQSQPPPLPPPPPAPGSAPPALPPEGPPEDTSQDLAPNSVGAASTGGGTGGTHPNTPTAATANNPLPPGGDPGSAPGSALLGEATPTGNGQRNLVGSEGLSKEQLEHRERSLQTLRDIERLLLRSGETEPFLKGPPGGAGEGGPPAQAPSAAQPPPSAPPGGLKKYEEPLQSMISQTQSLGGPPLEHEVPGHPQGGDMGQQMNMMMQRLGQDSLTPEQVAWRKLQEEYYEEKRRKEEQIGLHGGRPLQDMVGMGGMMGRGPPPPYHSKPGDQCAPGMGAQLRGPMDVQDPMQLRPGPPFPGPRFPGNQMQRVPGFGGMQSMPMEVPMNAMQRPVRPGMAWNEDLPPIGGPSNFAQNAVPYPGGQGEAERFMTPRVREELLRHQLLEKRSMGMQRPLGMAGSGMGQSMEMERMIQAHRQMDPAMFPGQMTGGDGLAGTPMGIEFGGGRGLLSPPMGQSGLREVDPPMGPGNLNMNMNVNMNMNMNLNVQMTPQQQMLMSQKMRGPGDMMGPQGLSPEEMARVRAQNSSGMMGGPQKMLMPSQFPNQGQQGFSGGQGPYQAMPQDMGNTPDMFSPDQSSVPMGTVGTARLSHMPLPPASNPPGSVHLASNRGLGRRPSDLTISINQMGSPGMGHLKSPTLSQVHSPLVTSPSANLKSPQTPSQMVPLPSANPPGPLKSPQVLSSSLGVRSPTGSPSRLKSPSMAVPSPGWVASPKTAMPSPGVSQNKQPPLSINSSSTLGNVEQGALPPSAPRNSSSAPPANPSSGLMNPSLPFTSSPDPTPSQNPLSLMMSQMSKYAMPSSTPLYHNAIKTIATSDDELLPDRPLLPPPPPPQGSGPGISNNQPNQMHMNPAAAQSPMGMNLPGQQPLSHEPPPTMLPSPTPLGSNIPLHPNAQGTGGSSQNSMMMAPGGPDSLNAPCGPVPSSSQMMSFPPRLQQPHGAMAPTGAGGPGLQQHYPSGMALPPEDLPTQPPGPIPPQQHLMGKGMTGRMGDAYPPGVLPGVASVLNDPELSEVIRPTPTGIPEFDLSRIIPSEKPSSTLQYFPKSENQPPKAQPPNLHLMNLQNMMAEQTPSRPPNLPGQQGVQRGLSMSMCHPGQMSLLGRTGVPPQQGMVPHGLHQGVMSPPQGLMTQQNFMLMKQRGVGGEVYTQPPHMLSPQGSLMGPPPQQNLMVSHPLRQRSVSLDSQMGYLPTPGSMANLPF
As to the kind of experiment: co-localisation in the nucleus of mouse 3T3 cells, fluorescence microscopy (indirect). The method, then: The plasmids for the expression of GFP-B9L and S33Y β-catenin constructed in Example 3 were transfected alone or together into mouse NIH 3T3 cells using Effectene (QIAGEN), and were forcedly expressed. GFP expression vector pEGFP-C2, as a control, was also transfected into mouse NIH 3T3 cells and was forcedly expressed. After 24 hours, the cells were fixed with formaldehyde, stained with anti-β-catenin antibody, reacted with rhodamine isothiocyanate (RITC)-labeled anti-rabbit IgG antibody, and observed by fluorescence microscopy to detect S33Y β-catenin in the cell. GFP-B9L was directly detected by observation of GFP under fluorescence microscopy (with the use of-FITC filter).
The full-length B9L cDNA obtained in Example 1 was inserted into the ECORI-SalI site of pEGFP-C2 to prepare plasmid pEGFP-C2B9L for the expression in animal cells, cotransfected with S33Y β-catenin expression plasmid into mouse 3T3 cells and the plasmids were forcedly expressed as described above, and S33Y β-catenin was. detected in the cells. Similar to theB9L protein fragment obtained by the two hybrid system, both S33Y β-catenin and GFP-B9L (full-length) were localized in the nucleus. Thus, the full-length B9L protein was also confirmed to bind to β-catenin and localizes β-catenin into the nucleus.

The target in test [2] is T2, GAL4 BD fusion of the N-terminal half of the β-catenin arm (residues 141 to 390 of mouse β-catenin, armadillo … (yeast; mouse, UniProt P04386 1-147; Q02248 141-390).
T2 construct: Two-hybrid bait; also called N-terminal half (armadillo repeats 1-6) of the β-catenin arm
As to the kind of experiment: yeast two-hybrid, β-galactosidase activity. From the text:
(§1) The respective bait plasmids were cotransfected with the B9L cDNA fragment-expressing clone obtained by the two-hybrid system in Example 1 into yeast HF7C strain, and the binding between the B9L protein and the respective β-catenin partial fragments were examined by the existence of β-galactosidase activity in the transformants. […] Thus, it was considered that the B9L protein binds to the N-terminal region of β-catenin arm (armadillo repeats 1-6).
(§2) In order to further examine which region of the B9L protein binds to the β-catenin arm, two-hybrid system was performed as follows. […] Each plasmid was cotransfected with the β-catenin arm bait plasmid prepared in Example 1 into yeast HF7C strain, and the binding of each B9L protein partial fragment and β-catenin arm was examined based on the presence or absence of β-galactosidase activity in the transformants. […] Thus, the B9L protein was indicated to bind to the β-catenin arm at the region of residues 292-439 in the amino acid sequence represented by SEQ ID NO: 2.

The target in test [3] is T3, GAL4 BD fusion of the C-terminal half of the β-catenin arm (residues 391 to 664 of mouse β-catenin, armadillo … (yeast; mouse, UniProt P04386 1-147; Q02248 391-664).
T3 construct: Two-hybrid bait; also called C-terminal half of the β-catenin arm (armadillo repeats 7-12)
Kind of test: yeast two-hybrid, β-galactosidase activity.
Source text: as §1, §2

Test [4] addresses T4, GAL4 BD fusion of almost the entire β-catenin arm (residues 141 to 664 of mouse β-catenin) (yeast; mouse, UniProt P04386 1-147; Q02248 141-664).
T4 construct: Two-hybrid bait; also called almost entire region
Kind of test: yeast two-hybrid, β-galactosidase activity.
Source text: as §1, §2

Test [5] addresses T5, GAL4-β-catenin fusion protein (GAL4 BD fused with mouse β-catenin armadillo domain, residues 128 to 683) (yeast; mouse, UniProt P04386 1-147; Q02248 128-683).
T5 construct: Bait of the yeast two-hybrid system; also called mβ-catenin arm; β-catenin arm bait plasmid
Kind of test: yeast two-hybrid screening, HIS3 and β-galactosidase reporters. The method, then: Screening was carried out with […] mouse fetal (Swiss Webster/NIH mouse; 17-day embryo) cDNA library, which is a library to be used for the two-hybrid system and provided by Clontech. This cDNA library contains vector pGAD10 (Clontech) with cDNA insert and, as a selection marker, LEU2 gene involved in leucine biosynthesis in yeast, and can express fusion proteins of GAL4 AD and cDNA-encoding proteins through ADH1 promoter. Specific method for the screening was conducted according to the manual attached to the library from Clontech as follows.
Specifically, both mouse fetal cDNA library for the two-hybrid system and plasmid GAL4-β-catenin prepared in (1) were introduced in yeast Saccharomyces cerevisiae HF7C strain (Clontech). HF7C strain is a yeast strain that is tryptophan-, leucine-, and histidine-auxotrophic. The strain has HIS3 gene on the chromosome wherein the gene is involved in histidine biosynthesis and has been ligated downstream of GAL1 promoter to which GAL4 BD can bind, as well as E. coli-derived β-galactosidase gene lacZ ligated downstream of a nucleotide sequence to which GAL4 BD can bind as reporter genes (Gene 212: 197 (1998)). A transformant containing both plasmid GAL4-β-catenin and cDNA clone of a protein that binds to mβ-catenin arm and expresses the respective fusion proteins, is non-auxotrophic for histidine and is positive in β-galactosidase activity. […]

B1: Mutated mouse β-catenin S33Y (other, UniProt Q02248 1-781, looked up)
chain: MATQADLMELDMAMEPDRKAAVSHWQQQSYLDYGIHSGATTTAPSLSGKGNPEEEDVDTSQVLYEWEQGFSQSFTQEQVADIDGQYAMTRAQRVRAAMFPETLDEGMQIPSTQFDAAHPTNVQRLAEPSQMLKHAVVNLINYQDDAELATRAIPELTKLLNDEDQVVVNKAAVMVHQLSKKEASRHAIMRSPQMVSAIVRTMQNTNDVETARCTAGTLHNLSHHREGLLAIFKSGGIPALVKMLGSPVDSVLFYAITTLHNLLLHQEGAKMAVRLAGGLQKMVALLNKTNVKFLAITTDCLQILAYGNQESKLIILASGGPQALVNIMRTYTYEKLLWTTSRVLKVLSVCSSNKPAIVEAGGMQALGLHLTDPSQRLVQNCLWTLRNLSDAATKQEGMEGLLGTLVQLLGSDDINVVTCAAGILSNLTCNNYKNKMMVCQVGGIEALVRTVLRAGDREDITEPAICALRHLTSRHQEAEMAQNAVRLHYGLPVVVKLLHPPSHWPLIKATVGLIRNLALCPANHAPLREQGAIPRLVQLLVRAHQDTQRRTSMGGTQQQFVEGVRMEEIVEGCTGALHILARDVHNRIVIRGLNTIPLFVQLLYSPIENIQRVAAGVLCELAQDKEAAEAIEAEGATAPLTELLHSRNEGVATYAAAVLFRMSEDKPQDYKKRLSVELTSSLFRTEPMAWNETADLGLDIGAQGEALGYRQDDPSYRSFHSGGYGQDALGMDPMMEHEMGGHHPGADYPVDGLPDLGHAQDLMDGLPPGDSNQLAWFDTDL
notes: Expressed from pMKITneo in COS-7 or NIH 3T3 cells; also called S33Y β-catenin
B1: the binding result in test [1] is reported as “binds”.

B2: GAL4 AD fusion of the B9L cDNA fragment clone obtained by the two-hybrid system (B9L protein residues 245 to 564, SEQ ID NO: 4) (other, not shown: large carriers)
chain: LANTAAEAVLQGRAESILAYHQQNVPRAKLDQAPKVPPTPEPLPLNTPSAGTPQSQPPPLPPPPPAPGSAPPALPPEGPPEDTSQDLAPNSVGAASTGGGTGGTHPNTPTAATANNPLPPGGDPGSAPGSALLGEATPTGNGQRNLVGSEGLSKEQLEHRERSLQTLRDIERLLLRSGETEPFLKGPPGGAGEGGPPAQAPSAAQPPPSAPPGGLKKYEEPLQSMISQTQSLGGPPLEHEVPGHPQGGDMGQQMNMMMQRLGQDSLTPEQVAWRKLQEEYYEEKRRKEEQIGLHGGRPLQDMVGMGGMMGRGPPPPYHSK
notes: Expressed in yeast HF7C as prey of the two-hybrid system; also called B9L cDNA fragment-expressing clone; bc19 like protein fragment
As for B2, the binding result in test [2] is “binds”; in test [3] it was “no binding”; in test [4], “binds”; in test [5], “binds”.

The values are drawn from patent US20040073001A1 (Kyowa Kirin, published 2004).
